From patent US11912781B2, “Humanized complement 5A receptor 1 antibodies and methods of use thereof” (VISTERRA, INC., priority 2021, dated 2024)

How the values were obtained:
tMCAO mice = assay: tMCAO stroke mouse model, infarct volume; assay type: in vivo; settings: antibodies 20 mg/kg, PMX53 1 mg/kg
Protocol: 1 mg/kg PMX53 was used as a control. The brain was resected, cut into slices and stained with TTC. The stained cross sections were analyzed by imaging.

C5aR1 [1] = target: T1, C5aR1 (Homo sapiens, UniProt P21730); assay: β-arrestin2 recruitment, two-subunit luciferase reporter; assay type: cell-based; set-up: expressed in transfected cells
T1 sequence (P21730 1-350): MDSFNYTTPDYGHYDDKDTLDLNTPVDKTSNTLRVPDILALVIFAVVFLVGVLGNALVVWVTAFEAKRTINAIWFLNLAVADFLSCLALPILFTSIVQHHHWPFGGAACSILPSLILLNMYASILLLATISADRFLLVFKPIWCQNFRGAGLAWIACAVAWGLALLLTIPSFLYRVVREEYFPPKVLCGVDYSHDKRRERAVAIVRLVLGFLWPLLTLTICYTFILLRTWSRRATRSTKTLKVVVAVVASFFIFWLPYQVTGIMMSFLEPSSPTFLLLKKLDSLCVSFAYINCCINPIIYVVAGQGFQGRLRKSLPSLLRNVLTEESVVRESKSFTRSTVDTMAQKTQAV
Excerpt: The β-arrestin assay utilized a proprietary two-subunit luciferase reporter system: one subunit is fused to C5aR1 and one subunit is fused to β-arrestin2. When in close proximity, the two subunits formed an enzyme that generates a luminescent signal, used as a proxy for C5aR1-mediated recruitment of β-arrestin2.
The experimental details of this determining β-arrestin recruitment are described in Example 6. […] Table 14 summarizes the […] of inhibition of β-arrestin recruitment.

C5aR1 [2] = target: T1, C5aR1; assay: GeneBLAzer assay, inhibition of Gα signaling; assay type: cell-based
Protocol: The GeneBLAzer assay kit and C5aR1 cell line were commercially available from Thermo Fisher (Catalog #K1544). The assay was performed as recommend by the manufacturer. Briefly, antibodies or antagonists were incubated for 30 minutes at increasing concentrations at 37° C. C5a was then added to the cells and incubated at 37° C. for an additional 4-5 hours. Beta-lactamase substrate was then added and incubated for 2 hours at room temperature. Fluorescent measurements for each well with an excitation/emission of 409/460 (blue) and 409/530 (green) were measured. An increase in the blue to green ratio was proportional to C5aR1 activation and was used to calculate the percent of activation for the cells in each well. The C5aR1 activation profile was monitored under increasing antagonist concentration. The IC50 was determined by plotting the percentage of signal against concentration of the antagonist.
This experiment was done as detailed in Example 2.

CD11b = assay: Inhibition of CD11b expression in neutrophils; assay type: cell-based, human; settings: range of C5a concentrations
Excerpt: CD11b, an integrin receptor, is mobilized to the surface of neutrophils in response to C5a activation and mediates intravascular crawling prior to neutrophil transmigration. CD11 is involved in numerous adhesion-related associations between cells such as monocytes, macrophages, natural killer (NK) cells, and granulocytes.
The experimental details of this determining CD11 expression are described in Example 5.

squirrel monkeys = assay: C5a-induced neutropenia in squirrel monkeys; assay type: in vivo, squirrel monkey; settings: antibody 10 mg/kg or avacopan 30 mg/kg IV 1 h before 0.1 mg/kg human C5a, 1 min post-C5a
Protocol: Briefly, three groups of squirrel monkeys were evaluated for inhibition of neutropenia. In the first group, 8 squirrel monkeys were injected with PBS (vehicle), intravenously. In the second group 8 squirrel monkeys were injected with exemplary antibodies at a dose of 10 mg/kg, intravenously. In the third group, group 8 squirrel monkeys were injected with avacopan at a dose of 30 mg/kg, intravenously. One hour after injection of the PBS, exemplary antibodies or avacopan, 0.1 mg/kg of human C5a was injected into the squirrel monkeys. The blood was collected after 1 min, 5 min 15 min, 2 hr and 6 hr after injection of human C5a. The percent change in neutrophils and average change in neutrophils were calculated in all three groups and are shown in FIG. 14B, as scatter plot.

U937-C5aR1 cells = assay: Binding to U937-C5aR1 cells; settings: two antibody preparations
human neutrophils = assay: Binding to human neutrophils; settings: two antibody preparations
C5aR1 [3] = target: T1, C5aR1; assay: Binding kinetics and internalization with or without sodium azide; settings: with or without 20 mM sodium azide
Protocol: The Example seeks to verify that the internalization of the C5aR1 antibodies is specific and not due to non-specific clustering of the membrane immunoglobulin. Sodium azide is a metabolic inhibitor, and inhibits internalization or endocytosis as these are energy dependent processes. Any metabolic dependency on the internalization of exemplary C5aR1 antibodies were probed using 10 nM C5aR1 antibodies in the presence or absence of 20 mM sodium azide.

[4] = Pharmacokinetics in human C5aR1 knock-in mice; assay type: in vivo, mouse; settings: hC5aR1 mice, 20 mg/kg
Protocol: (§1) 5 mg/kg of exemplary monospecific and biparatopic antibodies were injected intravenously into Tg32 mice. The amount of the antibody in the serum was evaluated over a period of 500 hours. […] FIG. 16B-16D show the stability of the anti-C5aR1 antibodies in the serum of 5 different mice for 500 hours. […] The tetravalent antibodies have slightly lower persistence in serum as compared to the monospecific antibody. Motavizumab was used as a control.
Target-Mediated Drug Disposition (TMDD) is evident for both exemplary C5aR1 antibodies with modified Fc domains. TMDD is the phenomenon in which a drug binds with high affinity to its pharmacological target site (such as a receptor) to such an extent that this affects its pharmacokinetic (PK) characteristics. The target binding and subsequent elimination of the drug-target complexes could affect both drug distribution and elimination, and result in nonlinearity of PK in a dose-dependent manner.
The target binding and subsequent elimination of the drug-target complexes could affect both drug distribution and elimination, and result in nonlinearity of PK in a dose-dependent manner. FIG. 30A-30F show antibody persistence was dose-dependent. […] FIG. 30F is in silico graphical representation of isotype control antibody over a period of 500 hours at a concentration of 20 mg/Kg. Non-naïve mice were administered multiple dosing of the mAbs once weekly over 4 total weeks.

[5] = Pharmacokinetics in Tg32 mice; assay type: in vivo, mouse; settings: 5 mg/kg IV
Protocol: as §1
Tg32 mice are a transgenic model in which human FcRn replaces native mouse FcRn. FcRn is necessary for the bidirectional transport of Abs across cellular barriers, influencing PK. Tg32 mice with human FcRn have been extensively studied and thought to correlate with PK in humans. The goal of this experiment was to assess FcRn-mediated recycling of IgG-scFv vs IgG formats and assess any impact of introducing Fc domain modifications on FcRn mediated recycling.
5 mg/kg of exemplary monospecific and biparatopic antibodies were injected intravenously into Tg32 mice. The percentage of antibody in the serum was determined using art-recognized assays. MVZ-IgG4-VFc17, a motavizumab antibody with IgG4 Fc and same Fc modifications as the C5aR1 antibodies, was used as a control. Further PK/PD analyses were carried out using CERTARA.

## PMX53 [reference compound]
tMCAO mice
  infarct volume compared to the vehicle group: only slightly reduced infarct volume

## Cc1ccc(NC(=O)[C@H]2CCCN(C(=O)c3c(C)cccc3F)[C@H]2c2ccc(NC3CCCC3)cc2)cc1C(F)(F)F [Avacopan]
C5aR1 [1]; 10 nM C5a, Table 9, read-out: IC50 for β-arrestin signaling
  IC50: 9.95 nM
C5aR1 [1]; 100 nM C5a, Table 9, read-out: IC50 for β-arrestin signaling
  IC50: 3.25 nM
C5aR1 [1]; C5a concentrations increase to 10 nM
  potency in β-arrestin2 recruitment as C5a increases: lost potency
C5aR1 [1]; read-out: IC50 (nM) at 100 nM C5a, beta-arrestin inhibition, 100 nM C5a, Table 14
  IC50: 34 nM
C5aR1 [2]; read-out: IC50 (nM) 10 nM C5a, Gα signaling, 10 nM C5a, Table 13
  IC50: 2.2 nM
C5aR1 [2]; read-out: IC50 (nM) 100 nM C5a, Gα signaling, extrapolated data, 100 nM C5a, Table 13, extrapolated
  IC50: 0.7 nM
CD11b
  inhibition of CD11b expression: only partially potent
Squirrel monkeys
  average reduction in neutrophil counts from baseline: 59%

## motavizumab [reference compound]
U937-C5aR1 cells
  EC50 of U937-C5aR1 binding: No Binding
Human neutrophils
  EC50 of human neutrophil binding: No Binding

B1: c2139-e1711: biparatopic anti-C5aR1 antibody, VH1 SEQ ID NO: 14, VL1 SEQ ID NO: 25, VH2 SEQ ID NO: 16, VL2 SEQ ID NO: 17 (antibody, V domains shown)
VH 1: QVQLVQSGAEVKKPGASVKVSCKASGYTFTNYWMHWVRQAPGQGLEWMGYLNPSSGYTKYAQKFQGRVTMTRDTSTSTVYMELSSLRSEDTAVYYCTRSGGDNYGNPYYFDRWGQGTTVTVSS
VL 1: DVQMTQSPSSLSASVGDRVTITCRASQSIVHSNGNTYLHWYQQKPGKAPKFLIYKVSNRFSGVPSRFSGSGSGTDFTLTISSLQPEDFATYYCAQYTLVPLTFGQGTKLEIK
VH 2: EVQLVESGGGLIQPGGSLRLSCAASGFTFNAYAMSWVRQAPGKCLEWVSSISTGGNTYYADSVKGRFTISRDNSKNTLYLQMNSLRAEDTAVYYCTRGYQRFSGFAYWGQGTLVTVSS
VL 2: EIVLTQSPATLSLSPGERATLSCRSSQSLVHSNGNTYLNWYQQKPGQAPRLLIYKVSNRLSGIPARFSGSGSGTDFTLTISSLEPEDFAVYYCSQSTHVPYTFGCGTKLEIK
C5aR1 [3]
  internalization: undergoes internalization during association

B2: Isotype CTL: a motavizumab antibody with IgG4 Fc and same Fc modifications as the C5aR1 antibodies, used as a control (antibody, chains of the INN, looked up, V domains shown)
VH: QVTLRESGPALVKPTQTLTLTCTFSGFSLSTAGMSVGWIRQPPGKALEWLADIWWDDKKHYNPSLKDRLTISKDTSKNQVVLKVTNMDPADTATYYCARDMIFNFYFDVWGQGTTVTVSS
VL: DIQMTQSPSTLSASVGDRVTITCSASSRVGYMHWYQQKPGKAPKLLIYDTSKLASGVPSRFSGSGSGTEFTLTISSLQPDDFATYYCFQGSGYPFTFGGGTKVEIK
modifications: IgG4 Fc modifications
notes: a motavizumab antibody with IgG4 Fc and same Fc modifications as the C5aR1 antibodies, used as a control
[4]; GeoMean
  AUC0-24: 7130 µg·h/mL
  AUCinf: 66200 µg·h/mL
  AUClast: 55800 µg·h/mL
  CL: 7.25 mL/day/kg
  Cmax: 453 µg/mL
  V: 0.06 L/kg
[4]; Median
  t1/2: 127 h
  tlast: 504 h
[5]; GeoMean
  AUC0-24: 1620 µg·h/mL
  AUCinf: 16900 µg·h/mL
  AUClast: 13100 µg·h/mL
  CL: 7.08 mL/day/kg
  Cmax: 131 µg/mL
  V: 0.104 L/kg
[5]; Median
  t1/2: 259 h
  tlast: 504 h
